Results reported in PMC7374751.

Columns and labels:
[1] = target: full length MMP-1 (human); assay: enzyme activity of pre-formed complexes against synthetic substrates; 10 nM [35S]TIMP-3 incubated with an equimolar concentration of metalloproteinase for 1 h at 37 °C; complex formation and stability over 24 h checked by activity
[2] = target: ADAMTS-5 (of the inhibition assays) (UniProt Q9UNA0); assay: enzyme inhibition kinetics (fluorogenic peptide substrates); apparent Ki; enzyme pre-incubated with TIMP-3 (0.5-100 nM) 1 h at 37 °C, equilibrium rate of substrate hydrolysis; TNC buffer (50 mM Tris-HCl pH 7.5, 150 mM NaCl, 10 mM CaCl2, 0.05% Brij-35, 0.02% NaN3), 37 °C; tight-binding equation

Sequence of full length MMP-1 (human) (P03956 100-469): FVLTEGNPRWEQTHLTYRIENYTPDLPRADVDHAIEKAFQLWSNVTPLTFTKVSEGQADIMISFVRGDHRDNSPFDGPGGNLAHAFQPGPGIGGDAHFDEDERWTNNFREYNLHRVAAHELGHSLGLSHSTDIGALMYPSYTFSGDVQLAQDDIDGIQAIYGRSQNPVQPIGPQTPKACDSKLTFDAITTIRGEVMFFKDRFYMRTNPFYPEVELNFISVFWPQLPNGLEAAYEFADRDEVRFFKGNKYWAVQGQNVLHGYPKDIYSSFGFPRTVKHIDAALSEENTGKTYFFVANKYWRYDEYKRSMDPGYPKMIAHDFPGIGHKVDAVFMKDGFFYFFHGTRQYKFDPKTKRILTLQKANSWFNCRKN

B1: FLAG-tagged TIMP-3 (natural protein)
chain: CTCSPSHPQDAFCNSDIVIRAKVVGKKLVKEGPFGTLVYTIKQMKMYRGFTKMPHVQYIHTEASESLCGLKLEVNKYQYLLTGRVYDGKMYTGLCNFVERWDQLTLSQRKGLNYRYHLGCNCKIKSCYYLPCFVTSKNECLWTDMLSNFGYPGYQSKHYACIRQKGGYCSWYRGWAPPDKSIINATDP
B1 showed a stoichiometry N [1] of 1 and a Ki [2] of 1.91 nM.
